Consider one protein from paper PMC3853416, “Structural and functional characterisation of the methionine adenosyltransferase from Thermococcus kodakarensis” (BMC Structural Biology, 2013).

Data set [1] concerns the molecule itself. The data set is described as follows: SEC; Superdex 200 prep grade, XK 16/70 column; 2 mL of 5 mg/mL protein; 40 mM Tris-HCl, 150 mM NaCl, pH 8.0; 1 mL/min; column calibrated with proteins of known size.
Substrate in data set [2]: Nc1ncnc2c1ncn2[C@@H]1O[C@H](COP(=O)(O)OP(=O)(O)OP(=O)(O)O)[C@@H](O)[C@H]1O
The data set is described as follows: HPLC (SCX column) detection of SAM formed. It is filed as biochemical, Thermococcus kodakarensis. As to conditions: co-substrate L-methionine (10 mM in standard assay), 0.1 M Tris-HCl, 0.02 M MgCl2, 0.2 M KCl, pH 8.0, 37 °C. From the text: (§1) HPLC (SCX column) detection of SAM formed on TkMAT

Substrate in data set [3]: CSCC[C@H](N)C(=O)O
The data set is described as follows: HPLC (SCX column) detection of SAM formed. The format is biochemical, Thermococcus kodakarensis. As to conditions: co-substrate ATP (10 mM in standard assay), 0.1 M Tris-HCl, 0.02 M MgCl2, 0.2 M KCl, pH 8.0, 37 °C.
Description: as §1

B1: methionine adenosyltransferase from Thermococcus kodakarensis (enzyme, UniProt Q5JF22 1-405, looked up)
chain: MAGKVRNIVVEELVRTPVEMQKVELVERKGIGHPDSIADGIAEAVSRALSREYVKRYGIILHHNTDQVEVVGGRAYPQFGGGEVIKPIYILLSGRAVEMVDREFFPVHEIALKAAKDYLRKAVRHLDLEHHVIIDSRIGQGSVDLVGVFNKAKKNPIPLANDTSFGVGYAPLSETEKIVLETEKYLNSDEFKKKYPAVGEDIKVMGLRKGDEIDLTIAAAIVDSEVDNPDDYMAVKEAIYEAAKGIVESHTERPTNIYVNTADDPKEGIYYITVTGTSAEAGDDGSVGRGNRVNGLITPNRHMSMEAAAGKNPVSHVGKIYNILSMLIANDIAEQVEGVEEVYVRILSQIGKPIDEPLVASVQIIPKKGYSIDVLQKPAYEIADEWLANITKIQKMILEDKVNVF
notes: methionine adenosyltransferase (S-adenosylmethionine synthase) of Thermococcus kodakarensis, gene cloned from genomic DNA into pET28a(+); the printed gene length (1155 bp) and primers may not fit this gene; Homodimer in solution by size exclusion chromatography; No removal of the His-tag is described; also called TkMAT; MAT
As to B1, the “stoichiometry N” value in data set [1] stood at 2. In addition, the Km in data set [2] was 6.54 ± 2.49 mM; in data set [3], 0.31 ± 0.07 mM.
